Measurements taken from US20250179210A1 (Merck KGaA, published 2025).

Legend:
[1] = target: T1, human_CEACAM5_ECD-his-biotin (R&D Systems) (human, UniProt P06731 35-685, biotinylated using routine methods (sites not given)); experiment: BLI (Octet Red), biotinylated antigen captured on streptavidin biosensor, Fab as analyte 6.25-200 nM
T1 construct: Bought protein; not shown: His tag and any linker
T1 sequence: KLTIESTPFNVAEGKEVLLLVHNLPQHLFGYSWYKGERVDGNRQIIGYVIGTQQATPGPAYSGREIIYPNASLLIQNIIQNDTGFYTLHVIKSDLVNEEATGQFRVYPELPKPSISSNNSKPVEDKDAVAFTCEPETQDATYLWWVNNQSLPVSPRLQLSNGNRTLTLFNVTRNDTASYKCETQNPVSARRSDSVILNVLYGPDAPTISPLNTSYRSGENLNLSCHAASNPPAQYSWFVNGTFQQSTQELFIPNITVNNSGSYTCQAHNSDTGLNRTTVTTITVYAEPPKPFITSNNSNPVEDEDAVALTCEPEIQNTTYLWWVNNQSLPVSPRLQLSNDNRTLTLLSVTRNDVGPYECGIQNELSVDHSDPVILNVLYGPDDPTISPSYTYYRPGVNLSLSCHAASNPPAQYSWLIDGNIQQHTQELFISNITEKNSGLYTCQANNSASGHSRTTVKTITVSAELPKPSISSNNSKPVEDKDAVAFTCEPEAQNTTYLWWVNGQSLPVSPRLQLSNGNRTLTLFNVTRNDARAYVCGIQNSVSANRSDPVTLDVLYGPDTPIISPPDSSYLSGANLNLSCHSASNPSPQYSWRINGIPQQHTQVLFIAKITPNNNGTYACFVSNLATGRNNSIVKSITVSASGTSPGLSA

[2] = target: T2, huCEACAM7-His6 (C926 Novoprotein) (human, UniProt Q14002 36-242, limits assumed); experiment: ELISA, protein coated at 12 nM
T2 construct: also called human CEACAM7
T2 sequence (looked up): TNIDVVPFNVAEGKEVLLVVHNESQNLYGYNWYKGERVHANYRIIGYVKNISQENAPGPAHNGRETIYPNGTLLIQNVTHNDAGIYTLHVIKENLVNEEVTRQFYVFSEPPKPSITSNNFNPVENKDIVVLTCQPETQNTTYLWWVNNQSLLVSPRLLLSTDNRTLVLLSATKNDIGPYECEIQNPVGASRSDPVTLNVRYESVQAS

[3] = target: T3, huCEACAM1-His6 (2244-CM R&D Systems) (human, UniProt P13688 35-428); experiment: ELISA, protein coated at 12 nM
T3 construct: also called human CEACAM1
T3 sequence (looked up): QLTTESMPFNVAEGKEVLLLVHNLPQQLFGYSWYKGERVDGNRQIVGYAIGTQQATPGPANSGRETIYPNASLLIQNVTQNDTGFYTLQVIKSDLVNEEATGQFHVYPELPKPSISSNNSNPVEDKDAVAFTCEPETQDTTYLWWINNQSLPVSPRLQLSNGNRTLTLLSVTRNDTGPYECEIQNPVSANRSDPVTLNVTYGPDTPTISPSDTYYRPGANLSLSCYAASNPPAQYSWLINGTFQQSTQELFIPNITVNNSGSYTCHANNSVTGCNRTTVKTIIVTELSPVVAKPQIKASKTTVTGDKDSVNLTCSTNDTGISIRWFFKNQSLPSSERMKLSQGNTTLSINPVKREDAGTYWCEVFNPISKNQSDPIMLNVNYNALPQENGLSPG

[4] = target: T4, huCEACAM8-His6 (C583 Novoprotein) (human, UniProt P31997 35-320, limits assumed); experiment: ELISA, protein coated at 12 nM
T4 construct: also called human CEACAM8
T4 sequence (looked up): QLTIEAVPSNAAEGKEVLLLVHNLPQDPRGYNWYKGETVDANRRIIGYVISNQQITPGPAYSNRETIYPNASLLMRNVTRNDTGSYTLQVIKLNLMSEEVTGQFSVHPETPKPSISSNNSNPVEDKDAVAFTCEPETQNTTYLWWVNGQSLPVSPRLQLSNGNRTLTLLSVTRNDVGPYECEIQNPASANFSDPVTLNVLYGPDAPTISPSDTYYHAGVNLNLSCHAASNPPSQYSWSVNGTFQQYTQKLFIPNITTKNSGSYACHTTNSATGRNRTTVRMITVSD

[5] = target: T5, huPSG1-His6 (CC66 Novoprotein) (human, UniProt P11464 35-419, limits assumed); experiment: ELISA, protein coated at 12 nM
T5 construct: also called human PSG1

[6] = target: T6, huCEACAM6-His6 (3934-CM R&D Systems and recombinant protein obtained from Syngene) (human, UniProt P40199 35-320); experiment: ELISA, protein coated at 12 nM
T6 construct: Two sources of the protein are named; the result is told once; also called human CEACAM6
T6 sequence (looked up): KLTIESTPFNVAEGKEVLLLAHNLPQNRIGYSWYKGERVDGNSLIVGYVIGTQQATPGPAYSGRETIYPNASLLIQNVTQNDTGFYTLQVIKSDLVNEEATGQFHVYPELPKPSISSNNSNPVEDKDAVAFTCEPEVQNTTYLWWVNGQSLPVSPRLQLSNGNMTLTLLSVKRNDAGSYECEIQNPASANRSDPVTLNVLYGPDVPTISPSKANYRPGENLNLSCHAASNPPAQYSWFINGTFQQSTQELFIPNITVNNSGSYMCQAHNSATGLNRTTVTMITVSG

[7] = target: T7, huCEACAM3-His6 (C449 Novoprotein) (human, UniProt P40198 35-155, limits assumed); experiment: ELISA, protein coated at 12 nM
T7 construct: also called human CEACAM3
T7 sequence (looked up): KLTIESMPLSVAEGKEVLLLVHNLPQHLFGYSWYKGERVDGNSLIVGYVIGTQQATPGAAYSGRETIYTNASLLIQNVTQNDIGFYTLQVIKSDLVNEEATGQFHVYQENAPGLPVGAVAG

[8] = target: T8, BSA (bovine serum albumin) (bovine, UniProt P02769 25-607); experiment: ELISA
T8 construct: Negative control; also called unrelated protein

[9] = target: T9, huCEACAM5-His6 (R&D Systems #4128-CM) (human, UniProt P06731 35-685); experiment: ELISA, protein coated at 12 nM; Fab, not IgG
T9 construct: Bought protein; also called human CEACAM5; not shown: His6 tag
T9 sequence: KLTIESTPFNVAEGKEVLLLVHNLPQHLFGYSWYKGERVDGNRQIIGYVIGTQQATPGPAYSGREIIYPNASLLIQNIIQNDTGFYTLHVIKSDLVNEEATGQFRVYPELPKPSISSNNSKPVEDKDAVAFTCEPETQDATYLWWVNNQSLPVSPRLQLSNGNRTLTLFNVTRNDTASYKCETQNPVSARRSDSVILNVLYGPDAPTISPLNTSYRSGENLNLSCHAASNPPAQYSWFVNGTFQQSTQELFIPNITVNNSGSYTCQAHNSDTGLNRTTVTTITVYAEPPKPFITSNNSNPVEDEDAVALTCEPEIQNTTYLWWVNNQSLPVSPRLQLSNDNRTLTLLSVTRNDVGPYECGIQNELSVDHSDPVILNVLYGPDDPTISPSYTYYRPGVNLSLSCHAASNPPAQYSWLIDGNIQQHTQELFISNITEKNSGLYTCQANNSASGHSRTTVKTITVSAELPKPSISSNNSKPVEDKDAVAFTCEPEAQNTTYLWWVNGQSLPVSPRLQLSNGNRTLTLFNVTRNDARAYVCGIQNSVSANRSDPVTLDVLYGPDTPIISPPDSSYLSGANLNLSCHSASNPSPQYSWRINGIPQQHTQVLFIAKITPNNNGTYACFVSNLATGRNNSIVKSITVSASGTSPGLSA

T5 sequence (P11464 35-419 limits assumed): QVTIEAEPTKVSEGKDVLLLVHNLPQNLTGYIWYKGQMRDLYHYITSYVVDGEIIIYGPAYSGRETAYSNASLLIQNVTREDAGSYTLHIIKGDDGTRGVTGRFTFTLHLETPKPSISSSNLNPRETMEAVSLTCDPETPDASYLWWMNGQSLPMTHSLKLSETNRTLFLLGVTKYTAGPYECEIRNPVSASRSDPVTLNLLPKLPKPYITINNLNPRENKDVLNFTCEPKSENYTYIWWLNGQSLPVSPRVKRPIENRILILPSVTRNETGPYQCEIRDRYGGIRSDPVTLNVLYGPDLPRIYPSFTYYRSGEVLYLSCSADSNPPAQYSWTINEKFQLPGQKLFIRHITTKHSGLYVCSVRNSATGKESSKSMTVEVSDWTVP
T8 sequence (P02769 25-607 limits assumed): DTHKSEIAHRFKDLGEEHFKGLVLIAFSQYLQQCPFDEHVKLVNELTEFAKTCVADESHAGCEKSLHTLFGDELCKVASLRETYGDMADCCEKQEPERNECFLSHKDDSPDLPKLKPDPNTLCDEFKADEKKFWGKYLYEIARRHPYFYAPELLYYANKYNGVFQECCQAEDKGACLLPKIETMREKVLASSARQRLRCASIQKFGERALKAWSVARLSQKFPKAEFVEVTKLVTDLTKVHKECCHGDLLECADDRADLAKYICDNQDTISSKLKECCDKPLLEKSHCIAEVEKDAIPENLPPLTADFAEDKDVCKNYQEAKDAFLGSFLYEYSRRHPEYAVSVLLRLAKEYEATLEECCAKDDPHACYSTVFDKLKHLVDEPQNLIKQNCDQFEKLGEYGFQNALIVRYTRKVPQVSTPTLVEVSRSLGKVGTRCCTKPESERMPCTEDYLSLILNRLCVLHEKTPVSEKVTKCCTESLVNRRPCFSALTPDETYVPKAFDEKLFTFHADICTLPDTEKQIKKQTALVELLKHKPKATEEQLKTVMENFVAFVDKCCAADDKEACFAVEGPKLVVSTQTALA

Kd [1]: 6.3 nM
binding result [2]: no binding (tested: 1000 nM)
binding result [3]: no binding (tested: 1000 nM)
binding result [4]: no binding (tested: 1000 nM)
binding result [5]: no binding (tested: 1000 nM)
binding result [6]: no binding (tested: 1000 nM)
binding result [7]: no binding (tested: 1000 nM)
EC50 [9]: 3.04 nM
B1: Fab of mAb1 (Fab, V domains shown)
VH: EVQLQESGPGLVKPSQTLSLTCTVSDGSVSRGGYYLTWIRQHPGKGLEWIGYIYYSGSTYFNPSLRSRVTMSVDTSKNQFSLKLSSVTAADTAVYYCARGIAVAPFDYWGQGTLVTVSS
VL: EIVLTQSPATLSVSPGERATLSCRTSQSVRSNLAWYQQKPGQAPRLLIYAASTRATGIPARFSGSGSGTEFTLTISSLQSEDFAVYYCQQYTNWPFTFGPGTKVDIK
notes: Fab format of mAb1; also called Fab generated from mAb1
binding result [8]: no binding (tested: all concentrations tested)
